Square brackets hold non-standard residues; d marks the D form. Ends that are not written are not given here.
B1: Analog 88 (peptide)
peptide: AEFFKLG[dP]NGYVYLHSA-NH2
modifications: N-terminus assumed
SMILES: CC(C)C[C@H](NC(=O)[C@H](CCCCN)NC(=O)[C@H](Cc1ccccc1)NC(=O)[C@H](Cc1ccccc1)NC(=O)[C@H](CCC(=O)O)NC(=O)[C@H](C)N)C(=O)NCC(=O)N1CCC[C@@H]1C(=O)N[C@@H](CC(N)=O)C(=O)NCC(=O)N[C@@H](Cc1ccc(O)cc1)C(=O)N[C@H](C(=O)N[C@@H](Cc1ccc(O)cc1)C(=O)N[C@@H](CC(C)C)C(=O)N[C@@H](Cc1c[nH]cn1)C(=O)N[C@@H](CO)C(=O)N[C@@H](C)C(N)=O)C(C)C
B2: Analog 96 (peptide)
peptide: AEFFKLGPNGYVYLHS[dA]-NH2
modifications: N-terminus assumed
SMILES: CC(C)C[C@H](NC(=O)[C@H](CCCCN)NC(=O)[C@H](Cc1ccccc1)NC(=O)[C@H](Cc1ccccc1)NC(=O)[C@H](CCC(=O)O)NC(=O)[C@H](C)N)C(=O)NCC(=O)N1CCC[C@H]1C(=O)N[C@@H](CC(N)=O)C(=O)NCC(=O)N[C@@H](Cc1ccc(O)cc1)C(=O)N[C@H](C(=O)N[C@@H](Cc1ccc(O)cc1)C(=O)N[C@@H](CC(C)C)C(=O)N[C@@H](Cc1c[nH]cn1)C(=O)N[C@@H](CO)C(=O)N[C@H](C)C(N)=O)C(C)C
B3: Analog 94 (peptide)
peptide: AEFFKLGPNGYVYL[dH]SA-NH2
modifications: N-terminus assumed
SMILES: CC(C)C[C@H](NC(=O)[C@H](CCCCN)NC(=O)[C@H](Cc1ccccc1)NC(=O)[C@H](Cc1ccccc1)NC(=O)[C@H](CCC(=O)O)NC(=O)[C@H](C)N)C(=O)NCC(=O)N1CCC[C@H]1C(=O)N[C@@H](CC(N)=O)C(=O)NCC(=O)N[C@@H](Cc1ccc(O)cc1)C(=O)N[C@H](C(=O)N[C@@H](Cc1ccc(O)cc1)C(=O)N[C@@H](CC(C)C)C(=O)N[C@H](Cc1c[nH]cn1)C(=O)N[C@@H](CO)C(=O)N[C@@H](C)C(N)=O)C(C)C
B4: Analog 82 (peptide)
peptide: [dA]EFFKLGPNGYVYLHSA-NH2
modifications: N-terminus assumed
SMILES: CC(C)C[C@H](NC(=O)[C@H](CCCCN)NC(=O)[C@H](Cc1ccccc1)NC(=O)[C@H](Cc1ccccc1)NC(=O)[C@H](CCC(=O)O)NC(=O)[C@@H](C)N)C(=O)NCC(=O)N1CCC[C@H]1C(=O)N[C@@H](CC(N)=O)C(=O)NCC(=O)N[C@@H](Cc1ccc(O)cc1)C(=O)N[C@H](C(=O)N[C@@H](Cc1ccc(O)cc1)C(=O)N[C@@H](CC(C)C)C(=O)N[C@@H](Cc1c[nH]cn1)C(=O)N[C@@H](CO)C(=O)N[C@@H](C)C(N)=O)C(C)C
B5: Analog 95 (peptide)
peptide: AEFFKLGPNGYVYLH[dS]A-NH2
modifications: N-terminus assumed
SMILES: CC(C)C[C@H](NC(=O)[C@H](CCCCN)NC(=O)[C@H](Cc1ccccc1)NC(=O)[C@H](Cc1ccccc1)NC(=O)[C@H](CCC(=O)O)NC(=O)[C@H](C)N)C(=O)NCC(=O)N1CCC[C@H]1C(=O)N[C@@H](CC(N)=O)C(=O)NCC(=O)N[C@@H](Cc1ccc(O)cc1)C(=O)N[C@H](C(=O)N[C@@H](Cc1ccc(O)cc1)C(=O)N[C@@H](CC(C)C)C(=O)N[C@@H](Cc1c[nH]cn1)C(=O)N[C@H](CO)C(=O)N[C@@H](C)C(N)=O)C(C)C

Columns and labels:
[1] = target: T1, Soluble recombinant human urokinase receptor (suPAR) (human, UniProt Q03405 23-299, limits assumed, biotinylated in the plate assays (sites not given)); assay: competition with phage displaying peptide 9 for soluble uPAR
T1 construct: Only called a soluble truncated form of the urokinase receptor; also called soluble uPAR; biotinylated suPAR
Description: (§1) The final anti-M13 conjugate dilution was 1:4000.
(§2) These concentrations were calculated based on the synthesis reactions.

[2] = target: T1, Soluble recombinant human urokinase …; assay: competition with phage displaying peptide 9 for soluble uPAR; * quantity tested could have been lower
Description: as §1, §2

[3] = target: T1, Soluble recombinant human urokinase …; assay: alanine scan of peptide 9; competition with phage displaying peptide 9 for soluble uPAR
Description: Streptavidin, 100 μl (0.1 mg/ml) in 50 mM Na₂CO₃, pH 9.6, was added to MaxiSorp wells (Nunc), incubated overnight at 4 C, and then washed with PBS/BSA. […] Competitive peptide inhibitors were added to the wells immediately prior to addition of the bacteriophage. The wells were incubated for one hour at room temperature, then washed and bound bacteriophage eluted with 6M urea in 0.1N HCl, pH 2.5. After 15 minutes, the urea eluate was brought to neutral pH by addition of 2M Tris base and the bacteriophage titers of input stocks and elutions measured by plaque formation assay. Results were expressed as the percent of input bacteriophage which bind to the wells. Alternatively, the amount of bacteriophage was determined in an ELISA where phage were preincubated with HRP-conjugated anti-M13 antibody for 30 minutes at room temperature before dispensing into wells prepared as above and incubated for one hour at room temperature. The final anti-M13 conjugate dilution was 1:4000. After washing, TMB substrate (100 μl/well) was added and color development was stopped with 0.8N H₂SO₄ (100 μl/well). The absorbance at 450 nm was then measured in a 96 well plate reader.
Approximately 10⁸ plaque forming units of the phage were used in the assay.

T1 sequence (Q03405 23-299 limits assumed): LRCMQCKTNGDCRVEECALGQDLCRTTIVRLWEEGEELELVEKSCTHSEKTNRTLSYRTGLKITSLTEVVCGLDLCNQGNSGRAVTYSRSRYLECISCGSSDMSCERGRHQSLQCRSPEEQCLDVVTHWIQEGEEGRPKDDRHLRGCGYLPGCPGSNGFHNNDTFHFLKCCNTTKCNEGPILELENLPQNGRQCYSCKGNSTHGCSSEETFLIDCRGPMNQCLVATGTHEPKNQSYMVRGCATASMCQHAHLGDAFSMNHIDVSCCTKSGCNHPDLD

% Inhibition at 5 uM [1] [%]	% Inhibition at 2.5 uM [2] [%]	% Inhibition at 2.5 uM [1] [%]	binding result [3]	Binder
76	80	–	–	B1
40	38	–	–	B2
41	–	36	–	B3
41	24	–	–	B4
–	–	–	no binding	AEFFKAGPNGYVYLHSA-NH2 [Analog 69 (peptide 9, Leu at position 6 to alanine)]
–	–	–	no binding	AEFFKLGPNGYVALHSA-NH2 [Analog 76 (peptide 9, Tyr at position 13 to alanine)]
–	–	–	no binding	AEFFKLGPNGAVYLHSA-NH2 [Analog 74 (peptide 9, Tyr at position 11 to alanine)]
–	–	–	no binding	AEFFKLGPNGYAYLHSA-NH2 [Analog 75 (peptide 9, Val at position 12 to alanine)]
59	–	47	–	B5

Reference: patent US20040265797A1 (CHIRON, published 2004)
